In assay [1] the target is taxol-stabilized microtubules (polymer of alpha/beta-tubulin), immobilized. Nature of the assay: single-molecule TIRF microscopy; spiking experiment, crowded conditions: pM GFP-labelled motor mixed with 15-25 nM unlabelled motor; binding durations at plus ends of taxol-stabilized microtubules.
For assay [2] the target is unchanged. Nature of the assay: single-molecule TIRF microscopy; Kin5_18GFP landing on and dissociating from the lattice of an immobilized microtubule in 1 mM ADP; exponential fit of binding durations.
Assay [3] has the same target. Nature of the assay: single-molecule TIRF microscopy; GFP-labelled motor (25 pM) in 1 mM ATP on immobilized taxol-stabilized microtubules; pause lifetimes at plus ends, exponential fit; BRB80 pH 6.8.

Sequence of taxol-stabilized microtubules (polymer of alpha/beta-tubulin), immobilized (P68363 whole entry, chain 1 of 2): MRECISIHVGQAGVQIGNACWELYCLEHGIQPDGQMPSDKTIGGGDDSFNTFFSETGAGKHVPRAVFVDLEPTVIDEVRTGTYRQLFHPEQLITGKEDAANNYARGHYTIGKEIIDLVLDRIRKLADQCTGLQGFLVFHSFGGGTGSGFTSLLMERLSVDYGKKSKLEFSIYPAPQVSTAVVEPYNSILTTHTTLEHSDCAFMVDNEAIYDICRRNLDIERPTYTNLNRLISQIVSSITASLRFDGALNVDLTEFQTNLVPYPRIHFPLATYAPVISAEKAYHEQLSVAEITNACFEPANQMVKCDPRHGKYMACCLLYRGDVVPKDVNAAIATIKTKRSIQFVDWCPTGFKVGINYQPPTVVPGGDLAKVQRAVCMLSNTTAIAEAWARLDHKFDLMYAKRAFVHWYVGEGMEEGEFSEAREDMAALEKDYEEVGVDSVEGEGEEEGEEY
Sequence of taxol-stabilized microtubules (polymer of alpha/beta-tubulin), immobilized (A8K068 whole entry, chain 2 of 2, further chain): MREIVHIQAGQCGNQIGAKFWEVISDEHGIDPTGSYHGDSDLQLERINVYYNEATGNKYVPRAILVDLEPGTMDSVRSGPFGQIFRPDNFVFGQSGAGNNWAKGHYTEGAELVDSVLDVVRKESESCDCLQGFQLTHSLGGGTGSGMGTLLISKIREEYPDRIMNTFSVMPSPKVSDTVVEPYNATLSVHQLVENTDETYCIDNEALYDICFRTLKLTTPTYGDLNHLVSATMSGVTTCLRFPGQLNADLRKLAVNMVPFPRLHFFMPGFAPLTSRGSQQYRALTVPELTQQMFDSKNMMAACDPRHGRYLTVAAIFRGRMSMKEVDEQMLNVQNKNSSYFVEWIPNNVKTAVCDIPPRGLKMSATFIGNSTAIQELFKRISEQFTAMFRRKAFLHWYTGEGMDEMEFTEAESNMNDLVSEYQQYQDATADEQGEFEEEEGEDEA

As for “Kin5_18GFP (dimeric kinesin-5: motor domain and native 18-residue neck linker of Xenopus laevis Eg5 fused to the proximal coiled coil of Drosophila conventional kinesin heavy chain, GFP-tagged)”, the end duration at plus ends under crowded conditions in assay [1] is 2.26 s. Moreover, the mean binding duration on the microtubule lattice in 1 mM ADP in assay [2] was 1.07 s. Moreover, the mean pause duration at plus ends in assay [3] was 7 s.

The values are drawn from publication PMC4600729.
